According to patent publication US20150111954, “LIN28/LET-7 CRYSTAL STRUCTURES, PURIFICATION PROTOCOLS, AND MOLECULAR PROBES SUITABLE FOR SCREENING ASSAYS AND THERAPEUTICS” (PRESIDENT AND FELLOWS OF HARVARD UNIVERSITY, published 2015):

Tests used:
[1] = target: T1, Lin28a delta-delta (terminal truncations and 9-residue linker deletion) (Mus musculus, UniProt Q8K3Y3 SEQ:4-151); experiment: EMSA; probe is a pre-let-7f-1 fragment; settings: tags: His6 removed by TEV; domain-swapped dimer in crystal); label: 5'-32P
T1 chain: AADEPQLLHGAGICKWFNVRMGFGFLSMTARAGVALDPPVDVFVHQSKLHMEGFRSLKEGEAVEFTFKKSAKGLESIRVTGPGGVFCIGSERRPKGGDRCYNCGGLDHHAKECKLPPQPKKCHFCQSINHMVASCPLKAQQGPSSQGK

[2] = target: T1, Lin28a delta-delta (terminal …); experiment: structure; crystal structure 2.0 A, Zn; settings: tags: His6 removed by TEV; domain-swapped dimer in crystal); stem-loop with 3' single-stranded GGAG
Experimental: (§1) Crystals of all three complexes were produced by vapor diffusion, using the hanging drop method. Concentrated complexes (10 mg/mL) were mixed 1 μL:1 μL with reservoir solution, and crystals grew overnight. Reservoir solution contained 0.6M NaH₂PO₄, 1.4M K₂HPO₄ and 5% glycerol for preEM-let-7d and preEM-let-7f-1 complexes; for preEM-let-7g, it contained 0.1M Tris pH 8.0, 32% w/v PEG 4000, and 0.2M Sodium Acetate. Crystals were harvested with mother liquor supplemented with 20% glycerol and frozen in liquid nitrogen. Diffraction data was indexed and scaled using XDS (Kabsch, 2010) and SCALA (Evans, 2006) in a workflow provided by autoPROC (Vonrhein et al., 2011). Experimental phases were obtained for Lin28:pre-let-7d complex by anomalous scattering from zinc atoms (SAD), using HKL2MAP (Schneider and Sheldrick, 2002) and AutoSol (Terwilliger et al., 2009). The structures of Lin28: preEM-let-7f-1 and Lin28: preEM-let-7g were solved by molecular replacement with Lin28: preEM-let-7d as search model using Phaser (McCoy et al., 2007). Density modification and NCS averaging over 6 or 2 copies were performed with PHENIX (Adams et al., 2010) to obtain electron density maps for model building with COOT (Emsley and Cowtan, 2004) and PHENIX was used for further refinement. […]

[3] = target: T2, Lin28a full-length (Mus musculus, UniProt Q8K3Y3 Q8K3Y3:1-209); experiment: EMSA; settings: tags: His6 removed by TEV; label: 5'-32P; stem-loop with 3' single-stranded GGAG
T2 sequence: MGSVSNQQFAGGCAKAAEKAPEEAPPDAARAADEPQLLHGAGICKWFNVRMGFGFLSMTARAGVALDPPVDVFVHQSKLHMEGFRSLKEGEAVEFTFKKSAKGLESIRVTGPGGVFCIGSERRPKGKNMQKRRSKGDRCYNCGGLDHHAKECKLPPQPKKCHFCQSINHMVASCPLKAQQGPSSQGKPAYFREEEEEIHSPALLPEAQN
Experimental: (§2) FIG. 9. Domain mapping and structural analysis of Lin28 protein, Related to FIG. 2. (A) EMSA of Lin28 truncations. […] Full-length preE-let-7d was used as probe, titrated with protein constructs indicated (left to right: 8 nM, 33 nM, 130 nM, 520 nM, 2.1 μM, 8.3 μM, 33.3 μM). (B) ¹⁵N-NOESY of the linker region. Homonuclear 1H/1H NOE spectral strips belonging to the residue numbers marked in red were taken from a 3D 15N-selected NOESY-HSQC, and only the amide region is shown for inter-residue backbone NOEs. Diagonal peaks are marked with a diagonal line and crosspeaks are marked with a cross. The linker region is missing inter-residue NOEs, while CCHC has amide-amide interactions evident from crosspeaks. (C) Plot of secondary shifts for Ca, CP, and C′ vs. residue number. Domain boundaries, consistent as in FIG. 2A, are marked with dashed grey lines. (D) EMSA of protein linker deletion constructs. Increasing amounts of protein (Lin28 35-187, with or without 9-residue internal deletion in the linker region) were added to radioactively labeled fragment of pre-let-7f-1 indicated. The concentrations of protein in each lane are as follows: 5 nM, 20 nM, 78 nM, 313 nM, 1.2 μM, 5 μM, 20 μM. (E) In vivo processing assay of pri-miR-122 and pri-miR-16, similar to main FIG. 2D. 293T cells (12 well) were co-transfected with Lin28 (100 ng) with pri-miR-122 or pri-miR-15-16 (750 ng). […]

[4] = target: T1, Lin28a delta-delta (terminal …); experiment: EMSA; 9-residue linker deletion supports binding; slightly lower affinity than full-length suggested; settings: tags: His6 removed by TEV; domain-swapped dimer in crystal); label: 5'-32P; stem-loop with 3' single-stranded GGAG
From the text: FIG. 2. Linker between CSD and CCHCx2 is flexible. See also FIG. 9. (A) Longitudinal (R1) and transverse (R2) relaxation rates and the ratio (R2/R1), plotted against the residue number. Relatively more dynamic regions are marked with a light yellow box. (B) Alignment of internal deletions in the linker, indicated with the number of amino acids deleted on left (SEQ ID NOS 84-87, respectively, in order of appearance). (C) EMSAs with preE-let-7d as probe, mixed with increasing concentrations (0.005, 0.02, 0.08, 0.3, 1.2, 5, 20 μM) of linker deletion constructs of Lin28(16-184): *, free probe; **, complex. (D) Quantitative RT-PCR results for in vivo levels of mature let-7g. Lin28Δ is truncated at both N and C termini. Lin28ΔΔ has both of the terminal extensions and the linker removed. The standard deviation is calculated from triplicate experiments; U6 RNA levels were used for normalization. (E) and (F) Western blots of Trizol bottom layer for transfections shown in (D).

[5] = target: T3, Lin28a (16-184), CSD-linker-CCHCx2 (Mus musculus, UniProt Q8K3Y3 SEQ:4-172); experiment: EMSA; comparable affinity to full-length; Kd bins only in figure; 20 mM Tris 7.5, 100 mM NaCl, 50 uM ZnCl2, yeast tRNA; settings: tags: His6 removed by TEV (GSG remnant); label: 5'-32P; stem-loop with 3' single-stranded GGAG
T3 chain: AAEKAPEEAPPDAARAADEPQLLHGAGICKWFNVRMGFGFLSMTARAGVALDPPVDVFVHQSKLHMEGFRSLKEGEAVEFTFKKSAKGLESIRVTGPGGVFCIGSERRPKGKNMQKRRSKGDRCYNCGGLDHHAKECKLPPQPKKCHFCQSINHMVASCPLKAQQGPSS
Experimental: as §2

[6] = target: T1, Lin28a delta-delta (terminal …); experiment: structure; crystal structure 2.9 A, Zn; settings: tags: His6 removed by TEV; domain-swapped dimer in crystal); stem-loop with 3' single-stranded GGAG
Experimental: as §1

[7] = target: T4, Lin28b (Homo sapiens, UniProt Q6ZN17 Q6ZN17:1-250); experiment: EMSA; effects of preEM point mutations equivalent to mouse Lin28a; settings: stem-loop with 3' single-stranded GGAG
T4 sequence: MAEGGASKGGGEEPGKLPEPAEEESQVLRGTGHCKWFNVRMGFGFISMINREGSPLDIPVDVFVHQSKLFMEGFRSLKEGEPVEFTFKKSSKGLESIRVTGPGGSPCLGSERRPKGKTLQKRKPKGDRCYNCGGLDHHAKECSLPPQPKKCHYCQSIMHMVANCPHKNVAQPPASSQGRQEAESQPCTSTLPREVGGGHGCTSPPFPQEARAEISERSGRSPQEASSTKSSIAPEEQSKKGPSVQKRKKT

[8] = target: T5, Lin28a (Homo sapiens, UniProt Q9H9Z2 Q9H9Z2:2-209); experiment: as above; settings: stem-loop with 3' single-stranded GGAG
T5 sequence: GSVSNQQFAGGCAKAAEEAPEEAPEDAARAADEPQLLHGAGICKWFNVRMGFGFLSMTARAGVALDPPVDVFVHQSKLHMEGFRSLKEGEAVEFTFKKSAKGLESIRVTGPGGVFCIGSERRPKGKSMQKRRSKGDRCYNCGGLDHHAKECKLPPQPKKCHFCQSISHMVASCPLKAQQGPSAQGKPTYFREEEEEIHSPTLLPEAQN

[9] = target: T3, Lin28a (16-184), CSD-linker-CCHCx2; experiment: EMSA; minimal preE, sufficient for high-affinity binding; complex also studied by NMR; settings: tags: His6 removed by TEV (GSG remnant); stem-loop with 3' single-stranded GGAG
[10] = target: T1, Lin28a delta-delta (terminal …); experiment: structure; crystal structure 2.8 A, Zn; settings: tags: His6 removed by TEV; domain-swapped dimer in crystal); stem-loop with 3' single-stranded GGAG
Experimental: as §1

B1: preE-let-7f-1 (ssRNA)
RNA: GUGGGGUAGUGAUUUUACCCUGUUUAGGAGAU
- binding result [1]: binds

B2: preEM-let-7g (ssRNA)
RNA: GGGGUCUAUGAUACCACCCCGGAG
- binding result [2]: binds

B3: preE-let-7d (ssRNA)
RNA: UUAGGGCAGAGAUUUUGCCCACAAGGAGUU
- binding result [3]: binds
- binding result [4]: binds
- binding result [5]: binds

B4: preEM-let-7d (ssRNA)
RNA: GGGCAGAGAUUUUGCCCGGAG
- binding result [6]: binds
- binding result [7]: binds
- binding result [8]: binds
- binding result [9]: binds

B5: preEM-let-7f-1 (ssRNA)
RNA: GGGGUAGUGAUUUUACCCUGGAG
- binding result [10]: binds
